Values of other authors, collected in patent US10716757B2, “Liposomal formulation for the oral hepatic delivery of drugs” (Universität Heidelberg, priority 2015, dated 2020).

Key:
[1] = Myrcludex B per se, no liposomes
[2] = film method followed by extrusion, reference [17]

Row | Molecule | oral bioavailability [1] [%] | encapsulation efficiency [2]
1 | Myr-HBVpreS/2-48 [Myrcludex B] | < 1 | 
2 | C[C@@H](O)[C@@H]1NC(=O)[C@H](CCCCN)NC(=O)[C@@H](Cc2c[nH]c3ccccc23)NC(=O)[C@H](Cc2ccccc2)NC(=O)[C@@H](NC(=O)[C@H](N)Cc2ccccc2)CSSC[C@@H](C(=O)N[C@H](CO)[C@@H](C)O)NC1=O [octreotide] |  | 13.0 % (m/m)
